Laboratory results as given in patent US20140274782A1, “AFFINITY REAGENTS AND METHODS FOR DETECTION, PURIFICATION, AND PROTEOMIC ANALYSIS OF METHYLATED PROTEINS” (The Board of Trustees of the Leland Stanford Junior …, priority 2013, published 2014).

B1: eEF1A2: protein with methylated lysine identified in 3xMBT pull-down (protein, UniProt Q05639 2-463, looked up)
Elongation factor 1-alpha 2: GKEKTHINIVVIGHVDSGKSTTTGHLIYKCGGIDKRTIEKFEKEAAEMGKGSFKYAWVLDKLKAERERGITIDISLWKFETTKYYITIIDAPGHRDFIKNMITGTSQADCAVLIVAAGVGEFEAGISKNGQTREHALLAYTLGVKQLIVGVNKMDSTEPAYSEKRYDEIVKEVSAYIKKIGYNPATVPFVPISGWHGDNMLEPSPNMPWFKGWKVERKEGNASGVSLLEALDTILPPTRPTDKPLRLPLQDVYKIGGIGTVPVGRVETGILRPGMVVTFAPVNITTEVKSVEMHHEALSEALPGDNVGFNVKNVSVKDIRRGNVCGDSKSDPPQEAAQFTSQVIILNHPGQISAGYSPVIDCHTAHIACKFAELKEKIDRRSGKKLEDNPKSLKSGDAAIVEMVPGKPMCVESFSQYPPLGRFAVRDMRQTVAVGVIKNVEKKSGGAGKVTKSAQKAQKAGK
B2: FAM50A: protein with methylated lysine identified in 3xMBT pull-down (protein, UniProt Q14320 2-339, looked up)
Protein FAM50A: AQYKGAASEAGRAMHLMKKREKQREQMEQMKQRIAEENIMKSNIDKKFSAHYDAVEAELKSSTVGLVTLNDMKAKQEALVKEREKQLAKKEQSKELQMKLEKLREKERKKEAKRKISSLSFTLEEEEEGGEEEEEAAMYEEEMEREEITTKKRKLGKNPDVDTSFLPDRDREEEENRLREELRQEWEAKQEKIKSEEIEITFSYWDGSGHRRTVKMRKGNTMQQFLQKALEILRKDFSELRSAGVEQLMYIKEDLIIPHHHSFYDFIVTKARGKSGPLFNFDVHDDVRLLSDATVEKDESHAGKVVLRSWYEKNKHIFPASRWEPYDPEKKWDKYTIR
modifications: methylated lysine
notes: protein with methylated lysine identified in 3xMBT pull-down
B3: SRSF11 (protein, UniProt Q05519 2-484, looked up)
Serine/arginine-rich splicing …: SNTTVVPSTAGPGPSGGPGGGGGGGGGGGGTEVIQVTNVSPSASSEQMRTLFGFLGKIDELRLFPPDDSPLPVSSRVCFVKFHDPDSAVVAQHLTNTVFVDRALIVVPYAEGVIPDEAKALSLLAPANAVAGLLPGGGLLPTPNPLTQIGAVPLAALGAPTLDPALAALGLPGANLNSQSLAADQLLKLMSTVDPKLNHVAAGLVSPSLKSDTSSKEIEEAMKRVREAQSLISAAIEPDKKEEKRRHSRSRSRSRRRRTPSSSRHRRSRSRSRRRSHSKSRSRRRSKSPRRRRSHSRERGRRSRSTSKTRDKKKEDKEKKRSKTPPKSYSTARRSRSASRERRRRRSRSGTRSPKKPRSPKRKLSRSPSPRRHKKEKKKDKDKERSRDERERSTSKKKKSKDKEKDRERKSESDKDVKQVTRDYDEEEQGYDSEKEKKEEKKPIETGSPKTKECSVEKGTGDSLRESKVNGDDHHEEDMDMSD

How the values were obtained:
3×MBT domain of L3MBTL1 [1] = test: SILAC proteomic pull-down 3×MBT vs 3×MBTD355N from 293T nuclear extract, LC-MS/MS; format: binding, human; conditions: SILAC ratio, 293T nuclear extract pull-down; * = protein identified in only one labeling experiment
Procedure: Protein pull-downs were performed as described above using 600 μg of nuclear extract prepared with isotopic labels as indicated. After eluting with glutathione, 3×MBT domain was removed by dialysis into high salt and rebinding to GSH-sepharose. Bound proteins were separated by SDS-PAGE and analyzed by in-gel tryptic digest followed by LC-MS/MS. Peptides were identified using MaxQuant version 1.2.2.5 (Cox and Mann (2008) Nat. Biotechnol. 26, 1367-1372) and candidate methylated peptides were verified by manual inspection.
For stable isotope labeling by amino acids in cell culture (SILAC) experiments HEK 293T cells were grown for at least six doublings in DMEM for SILAC supplemented with 10% dialyzed fetal bovine serum (FBS), 230 mg/L L-proline and either 100 mg/L each of L-lysine and L-arginine (“light” medium), D4-L-lysine and ^13C6-L-arginine (“medium” media), or ^13C6^15N2-L-lysine and ^13C6^15N4-L-arginine (Thermo Scientific). Heavy methyl labeling used DMEM without L-Methionine or L-Cysteine supplemented with D3^13C-L-Methionine (Sigma), L-Cysteine (Sigma) and 10% dialyzed FBS.
600 μg of nuclear extract was incubated overnight rotating at 4° C. with 20 μl packed 3×MBT or 3×MBTD355N beads in a total volume of 250 μL with binding buffer. Supernatant was removed and saved for use as a loading control. Beads were washed 4×5 minutes with 0.5 mL binding buffer. Protein was eluted by incubating in 20 μL elution buffer (10 mg/mL glutathione in 50 mM Tris pH 8.0) rotating at 4° C. for four hours. Elutions from 3×MBT and 3×MBTD355N were combined and dialyzed overnight at 4° C. against 10,000× volume of dissociation buffer (50 mM Tris pH 7.5, 750 mM NaCl) in a 0.1 mL Slide-A-Lyzer MINI Dialysis Device with 3.5K molecular weight cutoff (Thermo Scientific). 80 μL of GSH-Sepharose was prepared by washing briefly three times with 0.5 mL binding buffer. Dialyzed proteins were added to the GSH-Sepharose and incubated 4 hours rotating at 4° C. to deplete the GST-fusion domains. Supernatant was transferred to a fresh 1.5 mL tube. Proteins were separated by SDS-PAGE on a 10% polyacrylamide gel and stained using SilverQuest Silver Staining Kit (Life Technologies). Lanes were excised, residual 3×MBT band was removed, and gel was diced into 0.5 mm cubes. Gel pieces were destained and processed by in-gel digestion (Carlson et al. (2011) Science Signaling 4) with sequencing grade trypsin (Promega) and the peptide sample was dried completely in a vacuum centrifuge. To prepare a loading control, 2 μL each of light and heavy nuclear extract were combined, 6 μL of 8M urea was added, proteins were denatured by adding 2 μL of 100 mM dithiothreitol in digest buffer (50 mM ammonium bicarbonate) and heating to 60° C. for 1 hour, cysteine was alkylated by adding 2.2 μL 100 mg/mL iodoacetamide in digest buffer and incubating 1 hour at room temperature in darkness, and proteins were digested by adding 80 μL trypsin (Promega) at 12.5 ng/μL in digest buffer and incubating overnight at room temperature in darkness. Digestion was stopped by adding 10 μL of 10% formic acid.
Each experiment consisted of two sets of pull-downs: “forward” labeling with 3×MBT incubated with light nuclear extract and 3×MBTD355N with medium extract, and a second “reverse” labeling experiment with the label conditions swapped. Proteins were included in the results if they were quantified in both labeling directions. To determine reproducibility the entire experiment including the label swap was duplicated using independent protein preparations and a mass spectrometer at another institution.
For 3×MBT pull-down experiment #1 the gel lane was processed and peptides were loaded off-line onto a first dimension trap column (Waters Xbridge, C18, 10 μm particle size, 100 Å pore size, 5 cm packing length, 150 μm column i.d.). […]

G9a and GLP = biological target: T1, G9a and GLP (Homo sapiens, UniProt Q96KQ7+Q9H9B1); test: Triple SILAC pull-down after UNC0638 treatment of 293T cells, DMSO/UNC0638 ratio of protein captured by 3×MBT; format: cell-based; parameters: cells were treated for 24 hours with UNC0638 at 2.5 μM or DMSO vehicle control; endogenous in cells; host or cells: HEK 293T;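 also: mass spectrometry (Q-Exactive) SILAC quantitation, DMSO/UNC0638 ratio computed after subtracting 3×MBTD355N mutant pull-down background, only proteins with at least twofold 3×MBT over mutant signal considered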
T1 sequence (Q96KQ7 2-1210 limits assumed): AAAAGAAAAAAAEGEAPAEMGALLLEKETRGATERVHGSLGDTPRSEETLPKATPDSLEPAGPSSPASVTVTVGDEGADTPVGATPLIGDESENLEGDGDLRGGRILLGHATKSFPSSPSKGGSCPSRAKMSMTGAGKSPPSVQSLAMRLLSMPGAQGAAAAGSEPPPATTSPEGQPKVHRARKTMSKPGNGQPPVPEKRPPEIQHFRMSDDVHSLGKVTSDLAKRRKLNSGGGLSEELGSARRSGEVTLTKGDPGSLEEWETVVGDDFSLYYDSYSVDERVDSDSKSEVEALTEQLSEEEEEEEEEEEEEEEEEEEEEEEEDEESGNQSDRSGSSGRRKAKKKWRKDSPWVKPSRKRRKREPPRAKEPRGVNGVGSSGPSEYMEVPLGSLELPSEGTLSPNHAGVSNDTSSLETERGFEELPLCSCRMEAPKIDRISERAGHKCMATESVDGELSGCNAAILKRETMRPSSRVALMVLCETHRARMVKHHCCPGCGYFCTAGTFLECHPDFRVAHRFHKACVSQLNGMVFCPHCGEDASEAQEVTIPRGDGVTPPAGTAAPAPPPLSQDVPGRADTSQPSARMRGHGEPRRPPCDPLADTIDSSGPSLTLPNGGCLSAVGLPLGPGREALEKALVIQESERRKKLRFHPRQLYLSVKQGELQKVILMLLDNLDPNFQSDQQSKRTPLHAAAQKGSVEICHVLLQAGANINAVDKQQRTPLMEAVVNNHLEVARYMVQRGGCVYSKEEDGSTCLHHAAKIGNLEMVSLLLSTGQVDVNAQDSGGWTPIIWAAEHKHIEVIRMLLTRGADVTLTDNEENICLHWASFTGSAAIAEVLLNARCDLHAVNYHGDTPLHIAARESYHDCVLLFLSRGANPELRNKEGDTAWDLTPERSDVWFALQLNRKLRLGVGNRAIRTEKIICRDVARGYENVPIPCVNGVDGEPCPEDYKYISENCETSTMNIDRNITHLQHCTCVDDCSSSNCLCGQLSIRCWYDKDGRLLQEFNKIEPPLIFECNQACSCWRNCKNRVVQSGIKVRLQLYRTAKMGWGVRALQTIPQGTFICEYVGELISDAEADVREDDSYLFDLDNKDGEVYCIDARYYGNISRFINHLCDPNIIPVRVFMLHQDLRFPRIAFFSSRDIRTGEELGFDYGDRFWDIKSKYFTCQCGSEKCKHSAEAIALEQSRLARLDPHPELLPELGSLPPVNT
T1 sequence (Q9H9B1 2-1298 limits assumed): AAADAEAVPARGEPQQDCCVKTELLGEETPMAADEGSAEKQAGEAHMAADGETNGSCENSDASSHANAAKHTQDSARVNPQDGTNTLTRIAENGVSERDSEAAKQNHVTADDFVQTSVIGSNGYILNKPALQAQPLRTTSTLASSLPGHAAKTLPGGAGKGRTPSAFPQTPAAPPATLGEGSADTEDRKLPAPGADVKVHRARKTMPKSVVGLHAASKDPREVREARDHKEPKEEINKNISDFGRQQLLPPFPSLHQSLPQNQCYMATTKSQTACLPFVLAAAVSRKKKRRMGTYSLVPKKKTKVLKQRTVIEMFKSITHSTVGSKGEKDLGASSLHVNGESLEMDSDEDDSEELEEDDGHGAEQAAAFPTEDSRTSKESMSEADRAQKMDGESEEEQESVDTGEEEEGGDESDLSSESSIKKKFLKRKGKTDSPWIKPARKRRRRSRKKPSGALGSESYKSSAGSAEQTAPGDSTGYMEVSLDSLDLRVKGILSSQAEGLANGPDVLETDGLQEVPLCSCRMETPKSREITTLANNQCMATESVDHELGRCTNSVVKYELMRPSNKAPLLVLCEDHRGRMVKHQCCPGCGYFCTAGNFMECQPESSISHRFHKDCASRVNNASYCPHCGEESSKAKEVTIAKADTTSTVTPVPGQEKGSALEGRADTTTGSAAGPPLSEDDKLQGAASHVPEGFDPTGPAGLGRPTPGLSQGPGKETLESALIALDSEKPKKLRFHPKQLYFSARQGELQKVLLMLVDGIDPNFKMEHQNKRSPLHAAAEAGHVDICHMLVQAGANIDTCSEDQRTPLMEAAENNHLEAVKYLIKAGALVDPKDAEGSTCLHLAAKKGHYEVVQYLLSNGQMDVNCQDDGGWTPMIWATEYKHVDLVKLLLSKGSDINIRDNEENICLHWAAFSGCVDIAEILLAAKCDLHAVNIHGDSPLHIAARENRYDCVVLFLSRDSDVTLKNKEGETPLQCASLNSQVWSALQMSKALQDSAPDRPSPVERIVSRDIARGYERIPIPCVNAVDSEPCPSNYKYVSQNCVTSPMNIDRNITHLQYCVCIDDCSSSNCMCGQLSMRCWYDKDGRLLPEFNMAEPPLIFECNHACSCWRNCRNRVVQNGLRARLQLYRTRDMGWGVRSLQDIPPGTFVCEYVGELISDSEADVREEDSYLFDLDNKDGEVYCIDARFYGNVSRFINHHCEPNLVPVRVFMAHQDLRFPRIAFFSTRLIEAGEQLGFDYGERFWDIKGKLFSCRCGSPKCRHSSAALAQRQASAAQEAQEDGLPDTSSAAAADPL

3×MBT domain of L3MBTL1 [2] = test: Triple SILAC pull-down, 3xMBT/3xMBTD355N ratio (cytoplasmic, nuclear and chromatin fractions of 293T cells); format: binding, human; conditions: SILAC ratio, pull-down 3xMBT vs 3xMBTD355N;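 also: proteins quantified with MaxQuant, requiring at least two unique peptides and quantification in both label directions, normalized to the mean of proteins from a digested loading control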

Molecule | Protein Ratio 3xMBT/D355N (3×MBT domain of L3MBTL1 [1]) | Relative to UNC0638 UNC Heavy (G9a and GLP; SILAC ratio DMSO/UNC0638 of protein pulled down with 3xMBT, UNC0638 in heavy SILAC media) [log base 2] | Relative to UNC0638 UNC Light (G9a and GLP; SILAC ratio DMSO/UNC0638 of protein pulled down with 3xMBT, UNC0638 in light SILAC media) [log base 2] | Relative to UNC0638 Average (G9a and GLP; average of UNC Light and UNC Heavy experiments) [log base 2] | 3xMBT/D355N UNC Heavy (3×MBT domain of L3MBTL1 [2]; experiment with UNC0638 in heavy SILAC media) [log base 2] | 3xMBT/D355N UNC Light (3×MBT domain of L3MBTL1 [2]; experiment with UNC0638 in light SILAC media) [log base 2]
B1 | 1.5 |  |  |  |  | 
B2 | 3.7* |  |  |  |  | 
B3 |  | 0.15 | 0.34 | 0.24 | 2.45 | 2.22
